B1: Centrosomal protein of 135 kDa (Homo sapiens), Q66GS9 (parent)
chain: MTTAVERKYINIRKRLDQLGYRQTLTVECLPLVEKLFSDLVHTTESLRQSKLSAVKAEKESANFDFVLEPYKLENARLSRENNELYLELMKLREHSDQHVKELKTSLKKCARETADLKFLNNQYAHKLKLLEKESKAKNERIQQLQEKNLHAVVQTPGGKKRSIAFRRQRMQIDEPVPPSEVSSYPVPQPDDPYIADLLQVADNRIQELQQEVHQLQEKLAMMESGVRDYSKQIELREREIERLSVALDGGRSPDVLSLESRNKTNEKLIAHLNIQVDFLQQANKDLEKRIRELMETKETVTSEVVNLSNKNEKLCQELTEIDQLAQQLERHKEEVLETADKELGEAKKEIKRKLSEMQDLEETMAKLQLELNLCQKEKERLSDELLVKSDLETVVHQLEQEKQRLSKKVESFAVTERQLTLEVERMRLEHGIKRRDRSPSRLDTFLKGIEEERDYYKKELERLQHIIQRRSCSTSYSAREKSSIFRTPEKGDYNSEIHQITRERDELQRMLERFEKYMEDIQSNVKLLTAERDKLSVLYNEAQEELSALRKESTQTTAPHNIVSLMEKEKELALSDLRRIMAEKEALREKLEHIEEVSLFGKSELEKTIEHLTCVNHQLESEKYELKSKVLIMKETIESLENKLKVQAQKFSHVAGDSSHQKTEVNSLRIVNEQLQRSVDDYQHRLSIKRGELESAQAQIKILEEKIDELNLKMTSQDEEAHVMKKTIGVIDKEKDFLQETVDEKTEKIANLQENLANKEKAVAQMKIMISECESSVNQLKETLVNRDREINSLRRQLDAAHKELDEVGRSREIAFKENRRLQDDLATMARENQEISLELEAAVQEKEEMKSRVHKYITEVSRWESLMAAKEKENQDLLDRFQMLHNRAEDWEVKAHQAEGESSSVRLELLSIDTERRHLRERVELLEKEIQEHINAHHAYESQISSMAKAMSRLEEELRHQEDEKATVLNDLSSLRELCIKLDSGKDIMTQQLNSKNLEFERVVVELENVKSESDLLKKQLSNERHTVKNLESLLATNRDKEFHSHLTSHEKDTEIQLLKEKLTLSESKLTSQSRENTMLRAKVAQLQTDYDALKRQISTERYERERAIQEMRRHGLATPPLSSTLRSPSHSPEHRNV
partner: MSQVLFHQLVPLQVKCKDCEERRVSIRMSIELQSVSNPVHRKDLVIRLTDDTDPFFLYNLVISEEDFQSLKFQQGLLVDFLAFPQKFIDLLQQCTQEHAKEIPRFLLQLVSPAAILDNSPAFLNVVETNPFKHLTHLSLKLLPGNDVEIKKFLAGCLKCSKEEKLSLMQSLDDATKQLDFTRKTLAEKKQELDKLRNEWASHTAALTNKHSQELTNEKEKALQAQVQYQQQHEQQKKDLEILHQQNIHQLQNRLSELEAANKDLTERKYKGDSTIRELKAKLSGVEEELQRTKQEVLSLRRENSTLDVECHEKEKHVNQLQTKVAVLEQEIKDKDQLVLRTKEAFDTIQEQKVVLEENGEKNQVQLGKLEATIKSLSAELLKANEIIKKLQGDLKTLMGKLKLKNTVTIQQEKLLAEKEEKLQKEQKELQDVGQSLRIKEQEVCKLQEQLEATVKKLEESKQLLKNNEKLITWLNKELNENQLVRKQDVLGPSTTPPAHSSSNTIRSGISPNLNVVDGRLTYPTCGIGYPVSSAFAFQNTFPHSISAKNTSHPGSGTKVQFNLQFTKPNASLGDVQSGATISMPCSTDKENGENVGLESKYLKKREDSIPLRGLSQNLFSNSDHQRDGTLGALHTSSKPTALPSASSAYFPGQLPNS

Variants of: B1
Conditions: with sas6_human SASS6, Q6UVJ0

Question: L588P was tested. Which “effect of a mutation on the interaction” value did it give?
Answer: disrupting interaction
